22 molecules from patent US20240270826A1 (NATIONAL RESEARCH COUNCIL OF CANADA, published 2024) can be followed below.

Where two headings read alike, the source gives them in different places.

The term Kd denotes the free concentration of one partner at which half of the binding sites on the other are occupied at equilibrium, for simple one-to-one binding. Read a low Kd as tighter binding. The term koff denotes a measure of how fast the partners let go of each other. What is called kon is the rate constant with which the complex forms. Low readings indicate slower complex formation, high ones faster complex formation. Broadly, the EC50 is the concentration giving half of the maximal effect. The IC50 is the concentration that gives 50% inhibition. High values mean weaker potency in that assay, low ones greater potency in that assay. By IC99 is commonly meant the point of the concentration-response curve where the effect stands at 99%. Read a low IC99 as an effect from little substance.

For experiment [1], the target named is T1, Human SARS-CoV-2_Wuhan S (SmT1) (SARS-CoV-2 (Wuhan), UniProt P0DTC2 14-1208). Briefly: SPR, VHH over immobilised S. In general terms: Surface plasmon resonance follows binding to a sensor surface in real time, without labels.
Experiment [2] deals with SARS-CoV spike (S) (SARS-CoV, UniProt P59594 14-1195). Put plainly: SPR, VHH over immobilised S.
The target in experiment [3] is T1, Human SARS-CoV-2_Wuhan S (SmT1). Put plainly: SPR, VHH over immobilised S. The source holds these as a separate data set.
The target of experiment [4] is T2, SARS-CoV-2 S on CHO-S cells (SARS-CoV-2, UniProt P0DTC2 14-1273).
T2 construct: whole, on cells
Put plainly: flow cytometry, CHO-S cells. (In general: Flow cytometry measures light scatter and fluorescence of single cells or particles in a stream.)

The target of experiment [5] is Human SARS-CoV-2_Wuhan S (SmT1) (SARS-CoV-2 (Wuhan), UniProt P0DTC2 14-1208). Put plainly: flow cytometry SVNA, VHH-Fc vs biotin-S binding to Vero E6 ACE2.

B1: NRCoV2-14 VHH (VHH)
VHH: EVQLVSSGGGLVQAGGSLRLSCEASGTTFSHYAVGWYRQAPGKQREWVASISVFGSTTYGGSVAGRFTISRDNDKNTVDLQMNSLKPEDTAVYYCHAVNADIGGDYWGQGTQVTVSS
B1 showed a Kd in experiment [1] of 2.6 nM. For the same molecule, the binding result in experiment [2] was “no binding”. In experiment [3], this molecule displayed a Kd of 2.6 nM, a koff of 0.00101 s⁻¹ and a kon of 389000 M⁻¹ s⁻¹.

B2: NRCoV2-S2H4 VHH-Fc (Fc fusion)
chain: QVQLVQSGGGLVQAGGSLRLSCAASGFTFNLYSIAWFRQAPGKEREGVSCINSGDRDSTTYYADSVKGRFTISRDNAKHTAYLQMDSLKPEDTAVYYCALVFGYTSRDYCLTPKRGNYWGQGTQVTVSS
notes: bivalent VHH-Fc
For B2, in experiment [4], the Bmax came out at 7910 and the midpoint of the response, the EC50, lay at 1 nM.

B3: NRCoV2-1a VHH-Fc (Fc fusion)
chain: EVKLVQSGGGSVQPGGSLRLSCAASGSTLDYYAIGWFRQAPGKEREWVSCVSSSDGSTLYADSVKGRFTISRDNAKNTVYLQMNSLKPEDTAVYVCAADYSMRPLWVSRWHRDYEYWGQGTQVTVSS
notes: bivalent VHH-Fc
Take B3: in experiment [4], the Bmax was found to be 17200 and the EC50 turned out to be 1.1 nM.

B4: NRCoV2-1d VHH (VHH)
VHH: EVQLVESGGGSVQPGGSLRLSCAASGSTLDYYAIGWFRQAPGKEREWVSSVSSSDGNTLYADSVKGRFTISRDNAKNTVYLQMNSLKAEDTAVYVCAADYSMRPFAVGRWHRDYEYWGQGTQVTVSS
In turn, B4 had a Kd in experiment [1] of 0.75 nM. Further, in experiment [3], the Kd was 0.75 nM, the koff is 0.00105 s⁻¹ and the kon amounted to 1.39e+06 M⁻¹ s⁻¹.

B5: NRCoV2-1a VHH-Fc (Fc fusion)
chain: EVKLVQSGGGSVQPGGSLRLSCAASGSTLDYYAIGWFRQAPGKEREWVSCVSSSDGSTLYADSVKGRFTISRDNAKNTVYLQMNSLKPEDTAVYVCAADYSMRPLWVSRWHRDYEYWGQGTQVTVSS
notes: bivalent VHH-Fc
In experiment [5], B5 had an IC50 of 9.2 nM, a 99% effect concentration (IC99) of 89.4 nM and an Imax % of 94%.

B6: NRCoV2-20 VHH (VHH)
VHH: EVQLQQSGGGLVQPGGSLRLSCAASGRTFSNYVVGWFRQAPQAPGKDHEFVAVISGSDTETYYADSVKGRFTISRDNAKNTVYLQMNSLKPEDTAVYYCAADRGMSYYYTRATEYYYWGQGTQVTVSS
The molecule B6 registered a Kd in experiment [1] of 4.39 nM. In experiment [3], this molecule gave a Kd of 4.39 nM, a koff of 0.0116 s⁻¹ and a kon of 2.64e+06 M⁻¹ s⁻¹.

B7: NRCoV2-15 VHH (VHH)
VHH: EVQLVSSGGGLVEAGGSLRLSCIASGSTSGRNTMGWFRQAPGKQREWVAIVSTSGATNYAGSVKGRFTLSRDNAKNAVYLQMNNLKPEDTAVYYCYAAYGGGGDYWGQGTQVTVSS
In the case of B7, the Kd in experiment [1] stood at 0.32 nM. For the same molecule, the binding result in experiment [2] is “no binding”. Also, in experiment [3], binding was put at a Kd of 0.321 nM, the koff turned out to be 0.000222 s⁻¹ and the kon was 691000 M⁻¹ s⁻¹.

B8: NRCoV2-MRed25 VHH-Fc (Fc fusion)
chain: EVQLVESGGGLVQAGGSLRLSCAASGHTFSRYGMGWFRQAPGKEREFVAAISWRGDSTYYRDSVNGRFTISRDNAKNTVYLGMNSLKPEDTAVYYCAAEMWGTATIVASRYTYWGQGTQVTVSS
notes: bivalent VHH-Fc
In experiment [4], B8 showed a Bmax of 4420 and an EC50 of 0.8 nM.

B9: NRCoV2-07 VHH (VHH)
VHH: QVQLVQSGGGLVQPGGSLRLSCAASGVTLDYYAIGWFRQAPGKEREAVSCISSNGRRNHYVASVRGRFTISRDNAKSTVYLQMNSLKPEDTAVYYCAAVQDVHGDNYYCTSPNEYNVWGQGTQVTVSS
Turning to B9, the Kd in experiment [1] worked out at 0.94 nM; in experiment [2], 12.2 nM; in experiment [3], 0.939 nM. Moreover, the koff is 0.00146 s⁻¹ in experiment [2] and 0.000355 s⁻¹ in experiment [3]. Besides, the kon is 120000 M⁻¹ s⁻¹ in experiment [2] and 378000 M⁻¹ s⁻¹ in experiment [3].

B10: NRCoV2-06 VHH (VHH)
VHH: EVQLVQSGGGLVQAGESLRLSCAASVSTFSSYAMGWYRQAPGKQRELVASIGFVGATYYIDSVKGRFTISRDNAKKTAYLQMNDLKPDDTAVYYCNARHYGGSEYWGQGTQVTVSS
In experiment [1], B10 displayed a Kd of 223 nM. In addition, the binding result in experiment [2] is “no binding”. In addition, in experiment [3], binding was put at a Kd of 223 nM, the koff was found to be 0.00456 s⁻¹ and the kon is 20500 M⁻¹ s⁻¹.

B11: NRCoV2-11 VHH (VHH)
VHH: EVQLVSSGGGLVQPGGSLRLSCAASGSSLDSYSVSWFRQAPGKEREWISFISRYYSSTYYTDSVKGRFTTSRDGDQKTVHLQMNSLKPEDTAVYYCAARSRDFSSPFSATDTYTSWGQGTQVTVSS
In turn, B11 came in with a Kd in experiment [1] of 0.018 nM. Further, in experiment [2], the affinity, expressed as Kd, was 0.014 nM; the koff turned out to be 2.7e-05 s⁻¹; the kon was 1.93e+06 M⁻¹ s⁻¹. In addition, in experiment [3], the Kd came out at 0.0177 nM, the koff was found to be 1.71e-05 s⁻¹ and the kon is 964000 M⁻¹ s⁻¹.

B12: NRCoV2-18 VHH (VHH)
VHH: EVQLVESGGGLVQAGGSLRLSCVASGITISGYNMAWWRQTRGKQTERVAFINSGGSTTYSDSVKGRFTISRDNGKNTAYLQMNSLNAEDTADYFCSLHTSHDYWGQGTQVTVSS
As for B12, binding in experiment [1] was put at a Kd of 0.32 nM. In addition, in experiment [3], the Kd worked out at 0.318 nM, the koff is 9.39e-05 s⁻¹ and the kon was found to be 295000 M⁻¹ s⁻¹.

B13: NRCoV2-17 VHH (VHH)
VHH: EVQLQQSGGGLVQTGGSLRLSCAAAGSPFSQLAMSWYRQISGKERAWVASISPTGNRSYSKIAKGRFTISRDNAKNTVTLQMTSLKPEDTAAYICQAANVNGGDYWGQGTQVTVSS
The molecule B13 returned a Kd in experiment [1] of 0.15 nM. For the same molecule, the binding result in experiment [2] is “no binding”. In addition, in experiment [3], the Kd was 0.154 nM, the koff stood at 9.45e-05 s⁻¹ and the kon worked out at 614000 M⁻¹ s⁻¹.

B14: NRCoV2-SR02 VHH (VHH)
VHH: EVQLVDSGGGLVQAGGSLRLSCTASEFTLNYYSIGWFRQSPGKEREGVSCIRYSGGGIDYADSVKGRFTISRDNAKNTVYLTMNSLKPEDTAVYYCAADRLYSRACPTAGGRNYWGQGTQVTVSS
Regarding B14, the affinity in experiment [1], expressed as Kd, was 0.47 nM. In experiment [3], this molecule came in with a Kd of 0.135 nM, a koff of 0.000669 s⁻¹ and a kon of 4.98e+06 M⁻¹ s⁻¹.

B15: NRCoV2-03 VHH (VHH)
VHH: EVQLVSSGGGLVQAGGSLRLSCTASGITFSYYAMGWYRQAPGQPRELVASMSNMDSTIYADSVKGRFTISRDNAKTTIYLQMNNLKPEDTAVYFCNIYGPTYSTRRNEYWGQGTQVTVSS
Take B15: the Kd in experiment [1] is 1.56 nM. In addition, in experiment [2], the binding result was “no binding”. In experiment [3], this molecule came in with a Kd of 1.56 nM, a koff of 0.000181 s⁻¹ and an association rate constant (kon) of 116000 M⁻¹ s⁻¹.

B16: NRCoV2-05 VHH (VHH)
VHH: EVKLVQSGGGLVQPGGSLRLSCAASGFIFSNYAMNWVRQAPGKGLEWVSGINSGGGDTRYADSVKGRFTVSRDNAKNTLYLQMNSLKPEDTGVYYCSKGPVSSYYGSGYDYRGQGTQVTVSS
Regarding B16, in experiment [1], the Kd worked out at 2.6 nM. For the same molecule, the binding result in experiment [2] was “no binding”. In experiment [3], this molecule showed a Kd of 2.57 nM, a koff of 0.00709 s⁻¹ and a kon of 2.76e+06 M⁻¹ s⁻¹.

B17: NRCoV2-02 VHH (VHH)
VHH: EVQLVESGGGLVQAGGSLRLSCAASGFTFSNYAMNWVRQAPGKGLEWVSGISGRGDDTRYADSVKGRFTISRDNAKNTLFLQMRSLRPEDTGVYRCTKGPDLYYFGSGYSDRGQGTQVTVSS
B17 returned a Kd in experiment [1] of 0.62 nM. In addition, in experiment [2], the binding result is “no binding”. Moreover, in experiment [3], binding was put at a Kd of 0.624 nM, the koff stood at 0.00127 s⁻¹ and the kon turned out to be 2.04e+06 M⁻¹ s⁻¹.

B18: NRCoV2-04 VHH (VHH)
VHH: AVQLVDSGGGLVQPGGSLRLSCAASGSPFSNVVMAWYRQAPGKQRERVAFISGGGIADYIMSVKGRFTISRDNAKNTVYLQMNSLKPEDTAVYYCWSSYESTWGQGTQVTVSS
In experiment [1], B18 registered a Kd of 10.2 nM. In experiment [2], the binding result is “no binding”. Moreover, in experiment [3], the Kd came to 10.2 nM, the koff is 0.0188 s⁻¹ and the kon is 1.84e+06 M⁻¹ s⁻¹.

B19: NRCoV2-10 VHH (VHH)
VHH: QLQLQESGGGLVQPGGSLTLSCAASGNTFSRSNMHWYRQAPGAQREWVAAISSRGISTYAYSAKGRFTISRDNAKNTVSLQMNSLKPEDTAVYYCYAADDLGDYWGQGTQVTVSS
B19 yielded a Kd in experiment [1] of 0.2 nM. In addition, the binding result in experiment [2] is recorded as “no binding”. For the same molecule, in experiment [3], the Kd is 0.199 nM, the koff was 0.000116 s⁻¹ and the kon is 581000 M⁻¹ s⁻¹.

B20: NRCoV2-11a VHH-Fc (Fc fusion)
chain: EVQLQQSGGGLVQPGGSLRLSCAASGFTLDSYNIAWFRQAPGKEREWISYISRYYESTYYSDSVKGRFTTSRDGDKKTVSLQMNSLKSEDTAVYYCAARSRDFSSPISATDKYGSWGQGTQVTVSS
notes: bivalent VHH-Fc
In experiment [4], B20 registered a Bmax of 12000 and an EC50 of 2 nM.

B21: NRCoV2-11a VHH-Fc (Fc fusion)
chain: EVQLQQSGGGLVQPGGSLRLSCAASGFTLDSYNIAWFRQAPGKEREWISYISRYYESTYYSDSVKGRFTTSRDGDKKTVSLQMNSLKSEDTAVYYCAARSRDFSSPISATDKYGSWGQGTQVTVSS
notes: bivalent VHH-Fc
Turning to B21, in experiment [5], the IC50 worked out at 9.7 nM, the 99% effect concentration (IC99) is 67.6 nM and the Imax % is 46%.

B22: NRCoV2-SR13 VHH (VHH)
VHH: EVQLVESGGGLVTTGGSLRLSCATSGSRFGSKHMAWYRQAPGKQRDLVAAISSGGSTHYGSSVKGRFTISRDNAKSTVYLQMNSLNPEDTAVFYCNMGGWDYRSNTYIPGSRSDYWGQGTQVTVSS
In experiment [1], B22 showed a Kd of 3.6 nM. In experiment [3], this molecule returned a Kd of 3.56 nM, a koff of 0.00376 s⁻¹ and a kon of 1.06e+06 M⁻¹ s⁻¹.
